Data from patent US20260242735A1 (UNIVERSIT T BASEL, published 2026).

How the values were obtained:
Test in all cases: alanine scan, flow cytometry, HEK293-T;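 further: antibody binding to each alanine-substituted CD33 mutant expressed transiently in HEK293-T, read as fluorescence minus background, mean of duplicates, relative to wild-type CD33 set as 100%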
human CD33 T239A = human CD33 T239A (human, UniProt P20138 18-364)
human CD33 V221A = human CD33 V221A (human, UniProt P20138 18-364)
human CD33 P174A = human CD33 P174A (human, UniProt P20138 18-364)
Chain of human CD33 P174A (P20138 18-364 P174A limits assumed): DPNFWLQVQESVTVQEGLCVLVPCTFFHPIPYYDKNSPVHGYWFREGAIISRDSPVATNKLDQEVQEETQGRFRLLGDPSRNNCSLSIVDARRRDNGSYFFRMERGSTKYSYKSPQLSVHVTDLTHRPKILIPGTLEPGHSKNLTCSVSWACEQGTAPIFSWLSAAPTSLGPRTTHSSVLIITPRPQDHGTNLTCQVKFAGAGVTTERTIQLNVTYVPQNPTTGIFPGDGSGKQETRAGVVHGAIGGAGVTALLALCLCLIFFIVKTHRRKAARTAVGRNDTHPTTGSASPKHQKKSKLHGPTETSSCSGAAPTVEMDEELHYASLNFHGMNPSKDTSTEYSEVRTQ

human CD33 T200A = human CD33 T200A (human, UniProt P20138 18-364)
Chain of human CD33 T200A (P20138 18-364 T200A limits assumed): as the sequence (P20138 18-364 P174A limits assumed) above, with A157P, T183A counted along it

human CD33 T192A = human CD33 T192A (human, UniProt P20138 18-364)
Chain of human CD33 T192A (P20138 18-364 T192A limits assumed): as the sequence (P20138 18-364 P174A limits assumed) above, with A157P, T175A counted along it

human CD33 V214A = human CD33 V214A (human, UniProt P20138 18-364)
Chain of human CD33 V214A (P20138 18-364 V214A limits assumed): as the sequence (P20138 18-364 P174A limits assumed) above, with A157P, V197A counted along it

human CD33 I242A = human CD33 I242A (human, UniProt P20138 18-364)
Chain of human CD33 I242A (P20138 18-364 I242A limits assumed): as the sequence (P20138 18-364 P174A limits assumed) above, with A157P, I225A counted along it

human CD33 N230A = human CD33 N230A (human, UniProt P20138 18-364)
Chain of human CD33 N230A (P20138 18-364 N230A limits assumed): as the sequence (P20138 18-364 P174A limits assumed) above, with A157P, N213A counted along it

human CD33 H206A = human CD33 H206A (human, UniProt P20138 18-364)
Chain of human CD33 H206A (P20138 18-364 H206A limits assumed): as the sequence (P20138 18-364 P174A limits assumed) above, with A157P, H189A counted along it

human CD33 T173A = human CD33 T173A (human, UniProt P20138 18-364)
Chain of human CD33 T173A (P20138 18-364 T173A limits assumed): as the sequence (P20138 18-364 P174A limits assumed) above, with T156A, A157P counted along it

human CD33 S186A = human CD33 S186A (human, UniProt P20138 18-364)
Chain of human CD33 S186A (P20138 18-364 S186A limits assumed): as the sequence (P20138 18-364 P174A limits assumed) above, with A157P, S169A counted along it

human CD33 G218A = human CD33 G218A (human, UniProt P20138 18-364)
Chain of human CD33 G218A (P20138 18-364 G218A limits assumed): as the sequence (P20138 18-364 P174A limits assumed) above, with A157P, G201A counted along it

human CD33 S178A = human CD33 S178A (human, UniProt P20138 18-364)
Chain of human CD33 S178A (P20138 18-364 S178A limits assumed): as the sequence (P20138 18-364 P174A limits assumed) above, with A157P, S161A counted along it

human CD33 Q204A = human CD33 Q204A (human, UniProt P20138 18-364)
Chain of human CD33 Q204A (P20138 18-364 Q204A limits assumed): as the sequence (P20138 18-364 P174A limits assumed) above, with A157P, Q187A counted along it

human CD33 A272S = human CD33 A272S (human, UniProt P20138 18-364)
human CD33 L277A = human CD33 L277A (human, UniProt P20138 18-364)
human CD33 H317A = human CD33 H317A (human, UniProt P20138 18-364)
human CD33 G245A = human CD33 G245A (human, UniProt P20138 18-364)
human CD33 A289S = human CD33 A289S (human, UniProt P20138 18-364)
human CD33 I278A = human CD33 I278A (human, UniProt P20138 18-364)
human CD33 T253A = human CD33 T253A (human, UniProt P20138 18-364)
human CD33 R291A = human CD33 R291A (human, UniProt P20138 18-364)
human CD33 R254A = human CD33 R254A (human, UniProt P20138 18-364)
human CD33 H259A = human CD33 H259A (human, UniProt P20138 18-364)
human CD33 K283A = human CD33 K283A (human, UniProt P20138 18-364)
human CD33 Q251A = human CD33 Q251A (human, UniProt P20138 18-364)
human CD33 V258A = human CD33 V258A (human, UniProt P20138 18-364)
human CD33 S305A = human CD33 S305A (human, UniProt P20138 18-364)
human CD33 G295A = human CD33 G295A (human, UniProt P20138 18-364)
human CD33 L316A = human CD33 L316A (human, UniProt P20138 18-364)
human CD33 G304A = human CD33 G304A (human, UniProt P20138 18-364)
human CD33 Q311A = human CD33 Q311A (human, UniProt P20138 18-364)
human CD33 G247A = human CD33 G247A (human, UniProt P20138 18-364)
human CD33 H285A = human CD33 H285A (human, UniProt P20138 18-364)
human CD33 K315A = human CD33 K315A (human, UniProt P20138 18-364)
human CD33 S307A = human CD33 S307A (human, UniProt P20138 18-364)

Chain of human CD33 T239A (P20138 18-364 T239A limits assumed): as the sequence (P20138 18-364 P174A limits assumed) above, with A157P, T222A counted along it
Chain of human CD33 V221A (P20138 18-364 V221A limits assumed): as the sequence (P20138 18-364 P174A limits assumed) above, with A157P, V204A counted along it

Mean % WT Binding (human CD33 T239A) [%]	Mean % WT Binding (human CD33 V221A) [%]	Mean % WT Binding (human CD33 P174A) [%]	Mean % WT Binding (human CD33 T200A) [%]	Mean % WT Binding (human CD33 T192A) [%]	Mean % WT Binding (human CD33 V214A) [%]	Mean % WT Binding (human CD33 I242A) [%]	Mean % WT Binding (human CD33 N230A) [%]	Mean % WT Binding (human CD33 H206A) [%]	Mean % WT Binding (human CD33 T173A) [%]	Mean % WT Binding (human CD33 S186A) [%]	Mean % WT Binding (human CD33 G218A) [%]	Mean % WT Binding (human CD33 S178A) [%]	Mean % WT Binding (human CD33 Q204A) [%]	Mean % WT Binding (human CD33 A272S) [% WT binding]	Mean % WT Binding (human CD33 L277A) [% WT binding]	Mean % WT Binding (human CD33 H317A) [% WT binding]	Mean % WT Binding (human CD33 G245A) [% WT binding]	Mean % WT Binding (human CD33 A289S) [% WT binding]	Mean % WT Binding (human CD33 I278A) [% WT binding]	Binder	other results
105	89	110	82.4	102	102	128	109	97.3	97	106	143	112	126							Refmab #3 (antibody, V domains shown, In the alanine scan antibodies were used as IgG or Fab) VH: QVQLVQSGAEVKKPGSSVKVSCKASGYTFTDYNMHWVRQAPGQGLEWIGYIYPYNGGTGYNQKFKSKATITADESTNTAYMELSSLRSEDTAVYYCARGRPAMDYWGQGTLVTVSS VL: DIQMTQSPSSLSASVGDRVTITCRASESVDNYGISFMNWFQQKPGKAPKLLIYAASNQGSGVPSRFSGSGSGTDFTLTISSLQPDDFATYYCQQSKEVPWTFGQGTKVEIK	
79.7	91.9	90.9	85.2	101	80.5	77.9	83.6	98.8	106	92.5	79.2	94	93.7							Refmab #1 (antibody, V domains shown, In the alanine scan antibodies were used as IgG or Fab; also called hP67.6) VH: EVQLVQSGAEVKKPGSSVKVSCKASGYTITDSNIHWVRQAPGQSLEWIGYIYPYNGGTDYNQKFKNRATLTVDNPTNTAYMELSSLRSEDTAFYYCVNGNPWLAYWGQGTLVTVSS VL: DIQLTQSPSTLSASVGDRVTITCRASESLDNYGIRFLTWFQQKPGKAPKLLMYAASNQGSGVPSRFSGSGSGTEFTLTISSLQPDDFATYYCQQTKEVPWSFGQGTKVEVK	
														87.6	85.5	80.8	84.3	97.1	99.1	Refmab #1 (antibody, V domains shown, The alanine scan used IgG or Fab; also called hP67.6) VH: EVQLVQSGAEVKKPGSSVKVSCKASGYTITDSNIHWVRQAPGQSLEWIGYIYPYNGGTDYNQKFKNRATLTVDNPTNTAYMELSSLRSEDTAFYYCVNGNPWLAYWGQGTLVTVSS VL: DIQLTQSPSTLSASVGDRVTITCRASESLDNYGIRFLTWFQQKPGKAPKLLMYAASNQGSGVPSRFSGSGSGTEFTLTISSLQPDDFATYYCQQTKEVPWSFGQGTKVEVK	Mean % WT Binding (human CD33 T253A): 94.5 % WT binding; Mean % WT Binding (human CD33 R291A): 97.8 % WT binding; Mean % WT Binding (human CD33 R254A): 101 % WT binding; Mean % WT Binding (human CD33 H259A): 97.4 % WT binding; Mean % WT Binding (human CD33 K283A): 92.7 % WT binding; Mean % WT Binding (human CD33 Q251A): 98.8 % WT binding; Mean % WT Binding (human CD33 V258A): 99.8 % WT binding; Mean % WT Binding (human CD33 S305A): 86.4 % WT binding; Mean % WT Binding (human CD33 G295A): 92.7 % WT binding; Mean % WT Binding (human CD33 L316A): 84.6 % WT binding; Mean % WT Binding (human CD33 G304A): 104 % WT binding; Mean % WT Binding (human CD33 Q311A): 90.4 % WT binding; Mean % WT Binding (human CD33 G247A): 98.5 % WT binding; Mean % WT Binding (human CD33 H285A): 100 % WT binding; Mean % WT Binding (human CD33 K315A): 80.6 % WT binding; Mean % WT Binding (human CD33 S307A): 94.8 % WT binding
111	92.3	117	111	119	118	98.6	96.4	110	134	120	124	113	112							Refmab #2 (antibody, V domains shown, In the alanine scan antibodies were used as IgG or Fab) VH: QVQLVQSGAEVKKPGSSVKVSCKASGGTFSDYAISWVRQAPGQGLEWMGRIIPILGVADYAQKFQGRVTITADKSTRTAYMELSSLRSEDTAVYYCARNWADAFDIWGQGTMVTVSS VL: DIQLTQSPSSLSASVGDRVTITCRASQGISSVLAWYQQKPGKAPKLLIYDASSLESGVPSRFSGSGSGTDFTLTISSLQPEDFATYYCQQFDSSITFGQGTKLEIK	
														110	117	99.8	112	111	106	Refmab #2 (antibody, V domains shown, The alanine scan used IgG or Fab) VH: QVQLVQSGAEVKKPGSSVKVSCKASGGTFSDYAISWVRQAPGQGLEWMGRIIPILGVADYAQKFQGRVTITADKSTRTAYMELSSLRSEDTAVYYCARNWADAFDIWGQGTMVTVSS VL: DIQLTQSPSSLSASVGDRVTITCRASQGISSVLAWYQQKPGKAPKLLIYDASSLESGVPSRFSGSGSGTDFTLTISSLQPEDFATYYCQQFDSSITFGQGTKLEIK	Mean % WT Binding (human CD33 T253A): 104 % WT binding; Mean % WT Binding (human CD33 R291A): 122 % WT binding; Mean % WT Binding (human CD33 R254A): 118 % WT binding; Mean % WT Binding (human CD33 H259A): 109 % WT binding; Mean % WT Binding (human CD33 K283A): 102 % WT binding; Mean % WT Binding (human CD33 Q251A): 117 % WT binding; Mean % WT Binding (human CD33 V258A): 111 % WT binding; Mean % WT Binding (human CD33 S305A): 107 % WT binding; Mean % WT Binding (human CD33 G295A): 110 % WT binding; Mean % WT Binding (human CD33 L316A): 104 % WT binding; Mean % WT Binding (human CD33 G304A): 111 % WT binding; Mean % WT Binding (human CD33 Q311A): 99.5 % WT binding; Mean % WT Binding (human CD33 G247A): 110 % WT binding; Mean % WT Binding (human CD33 H285A): 109 % WT binding; Mean % WT Binding (human CD33 K315A): 111 % WT binding; Mean % WT Binding (human CD33 S307A): 112 % WT binding
102	104	118	88.8	99.7	101	104	63.5	97.7	119	121	102	101	99.8							Refmab #4 (antibody, V domains shown, In the alanine scan antibodies were used as IgG or Fab) VH: QVQLVQSGAEVKKPGESVKVSCKASGYTFTNYGMNWVKQAPGQGLEWMGWINTYTGEPTYADKFQGRVTMTTDTSTSTAYMEIRNLGGDDTAVYYCARWSWSDGYYVYFDYWGQGTSVTVSS VL: DIVMTQSPDSLTVSLGERTTINCKSSQSVLDSSTNKNSLAWYQQKPGQPPKLLLSWASTRESGIPDRFSGSGSGTDFTLTIDSPQPEDSATYYCQQSAHFPITFGQGTRLEIK	
